Read-outs that look alike come from different tables or passages of the source.
What was measured:
Assay in all cases: fluorescence anisotropy
[1] = target: T1, Dpo4 (SsoDpo4, Y-family DNA polymerase) (Sulfolobus solfataricus, UniProt Q97W02 1-352)
T1 sequence: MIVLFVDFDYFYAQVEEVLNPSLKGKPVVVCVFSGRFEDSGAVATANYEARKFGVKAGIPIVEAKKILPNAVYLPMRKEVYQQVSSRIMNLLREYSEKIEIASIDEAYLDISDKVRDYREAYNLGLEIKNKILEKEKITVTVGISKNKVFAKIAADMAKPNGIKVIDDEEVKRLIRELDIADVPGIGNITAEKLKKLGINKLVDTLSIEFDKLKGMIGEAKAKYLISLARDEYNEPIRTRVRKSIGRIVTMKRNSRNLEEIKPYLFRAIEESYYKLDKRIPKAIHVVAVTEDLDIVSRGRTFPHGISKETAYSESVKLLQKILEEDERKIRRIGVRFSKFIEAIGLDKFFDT

[2] = target: T1, Dpo4 (SsoDpo4, Y-family DNA polymerase); remark: listed apart in the source
[3] = target: T2, Dpo1 exo- (SsoDpo1, B-family DNA polymerase) (Sulfolobus solfataricus, UniProt P26811 1-882, D231A;D318A)
T2 sequence: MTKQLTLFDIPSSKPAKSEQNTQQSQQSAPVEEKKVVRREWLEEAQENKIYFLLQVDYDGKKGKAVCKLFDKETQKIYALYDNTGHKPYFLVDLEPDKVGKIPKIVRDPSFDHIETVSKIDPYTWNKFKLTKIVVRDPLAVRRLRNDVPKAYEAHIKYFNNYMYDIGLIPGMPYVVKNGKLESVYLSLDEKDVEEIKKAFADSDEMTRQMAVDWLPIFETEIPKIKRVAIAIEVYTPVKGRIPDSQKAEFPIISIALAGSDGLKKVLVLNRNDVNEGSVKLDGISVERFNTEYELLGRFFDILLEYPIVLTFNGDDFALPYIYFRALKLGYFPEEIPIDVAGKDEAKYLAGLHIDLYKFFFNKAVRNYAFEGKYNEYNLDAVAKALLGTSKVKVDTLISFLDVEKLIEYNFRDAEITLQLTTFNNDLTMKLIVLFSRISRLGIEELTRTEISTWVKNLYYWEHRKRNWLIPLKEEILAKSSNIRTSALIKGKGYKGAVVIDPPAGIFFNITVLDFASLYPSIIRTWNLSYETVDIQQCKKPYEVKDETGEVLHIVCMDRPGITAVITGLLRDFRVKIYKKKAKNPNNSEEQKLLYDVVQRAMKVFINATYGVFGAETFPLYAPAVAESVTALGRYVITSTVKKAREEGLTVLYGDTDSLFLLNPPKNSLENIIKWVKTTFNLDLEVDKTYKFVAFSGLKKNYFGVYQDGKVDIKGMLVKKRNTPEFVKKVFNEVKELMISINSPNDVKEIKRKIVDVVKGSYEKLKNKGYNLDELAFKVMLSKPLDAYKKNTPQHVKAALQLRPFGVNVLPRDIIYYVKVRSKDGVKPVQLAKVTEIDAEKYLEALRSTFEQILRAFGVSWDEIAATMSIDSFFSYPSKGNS

[4] = target: T2, Dpo1 exo- (SsoDpo1, B-family DNA …); remark: listed apart in the source
[5] = target: T2, Dpo1 exo- (SsoDpo1, B-family DNA …); remark: listed apart in the source
[6] = target: T1, Dpo4 (SsoDpo4, Y-family DNA polymerase); remark: listed apart in the source
[7] = target: T2, Dpo1 exo- (SsoDpo1, B-family DNA …); remark: listed apart in the source
[8] = target: T1, Dpo4 (SsoDpo4, Y-family DNA polymerase); remark: listed apart in the source

B1: 37-nt hairpin primer-template, 5'-Cy3 (structured_DNA)
DNA: TTTTTTTTTTCCCGGGCCGGCGTTTCGCCGGCCCGGG
[1]
  Kd: 176 ± 10 nM
[2]
  Kd: 329 ± 107 nM
[3]
  Kd: 208 ± 22 nM
[4]
  Kd: 105 ± 3 nM
[5]
  Kd: 94 ± 1 nM
[6]
  Kd: 155 ± 65 nM
[7]
  Kd: 113 ± 32 nM
[8]
  Kd: 164 ± 9 nM

Source: article PMC3477848 (Biochemistry, 2012)
